From patent US20180258163A1 (Chugai, published 2018)
Like-named read-outs stand apart in the source and are kept apart here.

Experiments:
soluble human FcγRIIb [1] = target: T1, soluble human FcγRIIb (human, UniProt P31994 43-217, limits assumed); experiment: SPR, Ab-IgE complex over captured hFcγRIIb, pH 7.4, 25C
T1 construct: soluble His-tagged form; also called hFcγRIIb
T1 sequence (looked up): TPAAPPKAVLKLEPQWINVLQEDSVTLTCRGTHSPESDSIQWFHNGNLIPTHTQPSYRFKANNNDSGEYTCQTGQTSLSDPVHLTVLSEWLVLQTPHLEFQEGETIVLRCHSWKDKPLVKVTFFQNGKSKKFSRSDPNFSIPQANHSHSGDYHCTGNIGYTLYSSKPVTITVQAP
Method: (§1) Regarding the produced Fc region variant-containing antibodies, binding assays between soluble human FcγRIIb and antigen-antibody complexes were performed using BIACORE T200 (GE Healthcare). Soluble human FcγRIIb (NCBI accession NM_004001.3) was produced in the form of a His-tagged molecule by a method known in the art. An appropriate amount of an anti-His antibody was fixed onto Sensor chip CM5 (GE Healthcare) by the amine coupling method using a His capture kit (GE Healthcare) to capture human FcγRIIb. Next, an antibody-antigen complex and a running buffer (as a reference solution) were injected, and interaction was allowed to take place with the human FcγRIIb captured onto the sensor chip. 20 mM N-(2-Acetamido)-2-aminoethanesulfonic acid, 150 mM NaCl, 1.2 mM CaCl₂, and 0.05% (w/v) Tween 20 at pH 7.4 was used as the running buffer, and the respective buffer was also used to dilute the soluble human FcγRIIb. To regenerate the sensor chip, 10 mM glycine-HCl at pH 1.5 was used. All measurements were carried out at 25° C. Analyses were performed based on binding (RU) calculated from sensorgrams obtained by the measurements, and relative values when the binding amount of Ab1H/Ab1L (original Ab1) was defined as 1.00 are shown. To calculate the parameters, the BIACORE T100 Evaluation Software (GE Healthcare) was used.

human IgE [2] = target: T2, human IgE (human, UniProt P01854-1 1-428); experiment: SPR, Ab captured, IgE analyte, pH 5.8, 25C
T2 construct: whole IgE; also called hIgE
Method: (§2) An appropriate amount of Protein A/G (ACTIGEN) was fixed onto Sensor chip CM4 (GE Healthcare) by the amine coupling method to capture the antibodies of interest. Next, human IgE was made to interact with the antibodies captured onto the sensor chip by injecting a diluted IgE solution and a running buffer (used as a reference solution). For the running buffer, either of the buffers (1) and (2) above was used, and human IgE was diluted using the respective buffer. To regenerate the sensor chip, 10 mM glycine-HCl at pH 1.5 was used. All measurements were carried out at 25° C. KD (M) for human IgE was calculated for each antibody based on the association rate constant ka (1/Ms) and dissociation rate constant kd (1/s), which are kinetic parameters calculated from the sensorgrams obtained by the measurements. The BIACORE T100 Evaluation Software (GE Healthcare) was used to calculate each parameter.

human IgE [3] = target: T2, human IgE; experiment: SPR, Ab captured, IgE analyte, pH 7.4, 25C
Method: as §2

soluble human FcγRIIb [4] = target: T1, soluble human FcγRIIb; experiment: SPR, Ab-IgE complex over captured hFcγRIIb, pH 7.4, 25C; remark: listed apart in the source
How it was run: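 Antibody–antigen complexes injected over His-tagged soluble human FcγRIIb captured via anti-His antibody on CM5 chip. Running buffer 20 mM ACES, 150 mM NaCl, 1.2 mM CaCl₂, 0.05% Tween 20, pH 7.4; regeneration 10 mM glycine-HCl pH 1.5. Binding (RU) expressed relative to original Ab1H/Ab1L set at 1.00.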

soluble human FcγRIIb [5] = target: T1, soluble human FcγRIIb; experiment: as above; remark: listed apart in the source
Method: as §1

human IL-8 [6] = target: T3, human IL-8 (human, UniProt P10145 23-99, limits assumed); experiment: SPR pH 7.4 40C; 50C 1 week in PBS against initial
T3 construct: also called hIL-8
T3 sequence: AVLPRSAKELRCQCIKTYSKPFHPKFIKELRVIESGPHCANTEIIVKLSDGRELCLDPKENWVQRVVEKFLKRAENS
Method: The levels of human IL-8 binding to the modified antibodies were analyzed using BIACORE T200 (GE Healthcare). Measurements were carried out at 40° C. by using 0.05% tween20, 40 mM ACES, and 150 mM NaCl at pH 7.4 as the running buffer.
An appropriate amount of Protein A/G (PIERCE) was immobilized onto the Sensor chip CM4 (GE Healthcare) by the amine coupling method and the antibodies of interest was captured. Next, a diluted human IL-8 solution or a running buffer (used as a reference solution) was injected to allow interaction of the antibodies captured onto the sensor chip with human IL-8. The running buffer was also used to dilute human IL-8. To regenerate the sensor chip, 25 mM NaOH and 10 mM glycine-HCl (pH 1.5) were used. The measured binding level of human IL-8 and the amount of antibodies captured at that binding level were extracted using the BIACORE T200 Evaluation Software (GE Healthcare).
The amount of human IL-8-binding per 1000 RU of the amount of antibody captured was calculated for the initial samples and the samples for the thermal acceleration test. Furthermore, the ratio of the human IL-8-binding level for the initial samples to that for samples of the thermal acceleration test was calculated.

human IL-8 [7] = target: T3, human IL-8; experiment: SPR pH 7.4 40C
Method: (§3) The following two running buffers were used, and measurements were carried out at the respective temperatures: (1) 0.05% tween20, 40 mM ACES, 150 mM NaCl, pH 7.4, 40° C.: and (2) 0.05% tween20, 40 mM ACES, 150 mM NaCl, pH 5.8, 37° C.
(§4) An appropriate amount of Protein A/G (PIERCE) was immobilized onto the Sensor chip CM4 (GE Healthcare) by the amine coupling method and the antibodies of interest were captured. Next, a diluted human IL-8 solution or a running buffer (used as a reference solution) was injected to allow interaction of the antibodies captured onto the sensor chip with human IL-8. For the running buffer, either one of the above-mentioned solutions was used, and the respective buffers were also used to dilute human IL-8. To regenerate the sensor chip, 25 mM NaOH and 10 mM glycine-HCl (pH 1.5) were used. KD (M) of each antibody for human IL-8 was calculated based on the association rate constant kon (1/Ms) and dissociation rate constant koff (1/s) which are kinetic parameters calculated from sensorgrams obtained by the measurements. The BIACORE T200 Evaluation Software (GE Healthcare) was used to calculate each parameter.

human IL-8 [8] = target: T3, human IL-8; experiment: SPR pH 5.8 37C
Method: as §3, §4

soluble human FcγRIIIa = target: T4, soluble human FcγRIIIa (human, UniProt P08637 17-208, limits assumed); experiment: SPR, Ab captured on Protein L, 20C
T4 construct: soluble His-tagged form; also called hFcγRIIIa
Method: (§5) Soluble FcγRIa and FcγRIIIa in both human and cynomolgus monkey were produced in the form of His-tagged molecules by methods known to those of ordinary skill in the art. An appropriate amount of rProtein L (BioVision) was immobilized onto the Sensor chip CM4 (GE Healthcare) by the amine coupling method and antibody of interest was captured. Next, soluble FcγRIa or FcγRIIIa was injected with a running buffer (used as a reference solution), and was made to interact with the antibodies captured onto the sensor chip. HBS-EP+ (GE Healthcare) was used as the running buffer, and HBS-EP+ was also used to dilute the soluble FcγRIa or FcγRIIIa. To regenerate the sensor chip, 10 mM glycine-HCl at pH 1.5 was used. All measurements were carried out at 20° C.

soluble human FcγRIa = target: T5, soluble human FcγRIa (human, UniProt P12314 16-292, limits assumed); experiment: SPR, Ab captured on Protein L, 20C
T5 construct: soluble His-tagged form; also called hFcγRIa
Method: as §5

[9] = target: T6, soluble cynomolgus monkey FcγRIIIa (cynomolgus monkey, UniProt Q8SPW2 17-208, limits assumed); experiment: SPR, Ab captured on Protein L, 20C
T6 construct: soluble His-tagged form; also called cynoFcγRIIIa
Method: as §5

T2 sequence (P01854 other isoform, or with tags, fused parts or gaps): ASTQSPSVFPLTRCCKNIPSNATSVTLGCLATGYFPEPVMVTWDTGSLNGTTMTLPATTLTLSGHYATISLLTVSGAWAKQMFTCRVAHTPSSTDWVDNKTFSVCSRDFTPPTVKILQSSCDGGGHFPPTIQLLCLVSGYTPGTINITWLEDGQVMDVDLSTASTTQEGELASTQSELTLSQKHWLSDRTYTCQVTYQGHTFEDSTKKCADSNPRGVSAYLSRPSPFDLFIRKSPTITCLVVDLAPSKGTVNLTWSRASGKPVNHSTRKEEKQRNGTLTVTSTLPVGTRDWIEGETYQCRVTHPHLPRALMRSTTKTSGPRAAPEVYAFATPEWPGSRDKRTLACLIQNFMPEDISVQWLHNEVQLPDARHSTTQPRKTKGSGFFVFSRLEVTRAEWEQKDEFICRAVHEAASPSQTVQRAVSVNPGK
T5 sequence (P12314 16-292 limits assumed): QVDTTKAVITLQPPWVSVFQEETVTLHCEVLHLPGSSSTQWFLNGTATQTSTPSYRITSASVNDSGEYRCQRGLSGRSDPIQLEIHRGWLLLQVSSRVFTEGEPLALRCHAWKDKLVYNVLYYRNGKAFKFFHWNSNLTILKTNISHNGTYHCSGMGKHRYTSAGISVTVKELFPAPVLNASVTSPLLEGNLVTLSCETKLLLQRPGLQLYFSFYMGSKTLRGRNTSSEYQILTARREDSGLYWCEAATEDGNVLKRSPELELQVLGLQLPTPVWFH
T6 sequence (Q8SPW2 17-208 limits assumed): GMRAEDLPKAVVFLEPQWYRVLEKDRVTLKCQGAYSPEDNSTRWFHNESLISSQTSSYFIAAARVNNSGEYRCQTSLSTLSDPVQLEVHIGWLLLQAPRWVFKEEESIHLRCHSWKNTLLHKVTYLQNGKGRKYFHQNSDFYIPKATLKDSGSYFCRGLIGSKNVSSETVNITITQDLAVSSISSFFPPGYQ
T4 sequence (P08637 17-208 limits assumed): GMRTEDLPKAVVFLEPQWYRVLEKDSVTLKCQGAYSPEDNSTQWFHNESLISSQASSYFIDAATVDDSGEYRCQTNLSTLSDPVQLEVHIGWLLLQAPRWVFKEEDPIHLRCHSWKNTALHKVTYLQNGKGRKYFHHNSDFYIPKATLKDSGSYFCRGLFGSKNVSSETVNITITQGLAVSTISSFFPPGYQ

B1: Ab1 (antibody, human IgG1, kappa)
heavy: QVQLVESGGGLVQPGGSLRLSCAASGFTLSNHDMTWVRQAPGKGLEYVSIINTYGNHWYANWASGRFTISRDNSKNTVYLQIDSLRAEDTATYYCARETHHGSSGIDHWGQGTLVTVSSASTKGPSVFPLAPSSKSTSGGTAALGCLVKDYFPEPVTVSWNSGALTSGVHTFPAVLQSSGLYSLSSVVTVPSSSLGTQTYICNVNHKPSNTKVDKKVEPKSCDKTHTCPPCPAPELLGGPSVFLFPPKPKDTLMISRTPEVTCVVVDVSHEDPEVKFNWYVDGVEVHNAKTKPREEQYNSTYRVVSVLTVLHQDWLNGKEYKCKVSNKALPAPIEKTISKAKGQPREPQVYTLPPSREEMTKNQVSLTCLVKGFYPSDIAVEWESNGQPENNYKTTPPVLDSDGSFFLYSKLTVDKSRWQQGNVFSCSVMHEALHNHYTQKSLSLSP
light: DIQMTQSPSSVSASVGDRVTITCQASESIYSGLAWYQQKPGQPPKLLIYDHSTLASGVPSRFSGSGSGTEYALTISSLQPEDFATYYCQHADYAHHSDNVFGGGTKVEIKRTVAAPSVFIFPPSDEQLKSGTASVVCLLNNFYPREAKVQWKVDNALQSGNSQESVTEQDSKDSTYSLSSTLTLSKADYEKHKVYACEVTHQGLSSPVTKSFNRGEC
notes: also called Ab1H/Ab1L; original Ab1; copies: 2 + 2
Q: Which results are given for B1?
A: BIACORE fold (relative binding, original Ab1=1.00) (soluble human FcγRIIb [1]): 1 fold; Kd (human IgE [2]): 2400 nM; koff (human IgE [2]): 0.039 s⁻¹; kon (human IgE [2]): 16000 M⁻¹ s⁻¹; Kd (human IgE [3]): 2.3 nM; koff (human IgE [3]): 0.006 s⁻¹; kon (human IgE [3]): 2.7e+06 M⁻¹ s⁻¹; BIACORE fold (relative binding, original Ab1=1.00) (soluble human FcγRIIb [4]): 1 fold; BIACORE fold (relative binding, original Ab1=1.00) (soluble human FcγRIIb [5]): 1 fold

B2: H1009/L395 (antibody, human IgG1, kappa)
heavy: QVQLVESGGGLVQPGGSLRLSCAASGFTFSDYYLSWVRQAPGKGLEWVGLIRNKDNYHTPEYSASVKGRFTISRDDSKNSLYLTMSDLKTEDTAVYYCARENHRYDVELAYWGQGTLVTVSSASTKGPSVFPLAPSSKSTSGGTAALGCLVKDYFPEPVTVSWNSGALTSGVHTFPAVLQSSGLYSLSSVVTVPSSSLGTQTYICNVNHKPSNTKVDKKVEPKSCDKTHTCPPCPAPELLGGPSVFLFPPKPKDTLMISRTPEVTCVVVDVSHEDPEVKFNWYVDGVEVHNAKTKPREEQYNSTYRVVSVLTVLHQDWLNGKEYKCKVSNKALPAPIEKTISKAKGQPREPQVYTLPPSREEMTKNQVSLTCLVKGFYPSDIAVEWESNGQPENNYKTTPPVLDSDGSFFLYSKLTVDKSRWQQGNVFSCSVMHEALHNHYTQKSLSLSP
light: DIQMTQSPSSLSASVGDRVTITCRASEIIYSYLAWYQQKPGKAPKLLIYKAKTHADGVPSRFSGSGSGTDFTFTISSLQPEDIATYYCKHHFGFPRTFGQGTKVEIKRTVAAPSVFIFPPSDEQLKSGTASVVCLLNNFYPREAKVQWKVDNALQSGNSQESVTEQDSKDSTYSLSSTLTLSKADYEKHKVYACEVTHQGLSSPVTKSFNRGEC
notes: also called H1009/L0395; H1009/L395-IgG1
Q: B2 was tested. Which “Ratio of IL-8 Amount (Thermal Acceleration/Initial)” value (human IL-8 [6]) did it give?
A: 0.64

B3: H1023/L0395 (antibody, human IgG1, kappa, name in Kabat numbering, V domains shown)
VH: QVQLVESGGGLVQPGGSLRLSCAASGFTFSDYYLSWVRQAPGKGLEWVGLIRNKDNGYHPEYSASVKGRFTISRDDSKNSLYLTMSDLKTEDTAVYYCARENHRYDVELAYWGQGTLVTVSS
VL: DIQMTQSPSSLSASVGDRVTITCRASEIIYSYLAWYQQKPGKAPKLLIYKAKTHADGVPSRFSGSGSGTDFTFTISSLQPEDIATYYCKHHFGFPRTFGQGTKVEIKR
Q: Which results are given for B3?
A: Kd (human IL-8 [7]): 0.076 nM; Kd (human IL-8 [8]): 92 nM; koff (human IL-8 [8]): 0.018 s⁻¹

B4: H1023/L0442 (antibody, human IgG1, kappa, name in Kabat numbering, V domains shown)
VH: QVQLVESGGGLVQPGGSLRLSCAASGFTFSDYYLSWVRQAPGKGLEWVGLIRNKDNGYHPEYSASVKGRFTISRDDSKNSLYLTMSDLKTEDTAVYYCARENHRYDVELAYWGQGTLVTVSS
VL: DIQMTQSPSSLSASVGDRVTITCRASEIIYEYLAWYQQKPGKAPKLLIYKAKTHADGVPSRFSGSGSGTDFTFTISSLQPEDIATYYCKHHFGFPRTFGQGTKVEIKR
Q: Which Kd (human IL-8 [7]) does the source give for B4 here?
A: 0.12 nM

Q: What about the Kd (human IL-8 [8]) of the same binder?
A: 7100 nM

Q: And the koff (human IL-8 [8])?
A: 0.017 s⁻¹

B5: H1040/L0442 (antibody, human IgG1, kappa, name in Kabat numbering, V domains shown)
VH: QVQLVESGGGLVQPGGSLRLSCAASGFTFSEYYLSWVRQAPGKGLEWVGLIRNKDNHHHPEYSASVKGRFTISRDDSKNSLYLTMSDLKTEDTAVYYCARENHRYDVELAYWGQGTLVTVSS
VL: DIQMTQSPSSLSASVGDRVTITCRASEIIYEYLAWYQQKPGKAPKLLIYKAKTHADGVPSRFSGSGSGTDFTFTISSLQPEDIATYYCKHHFGFPRTFGQGTKVEIKR
Q: B5 was tested. Which “Ratio of IL-8 Amount (Thermal Acceleration/Initial)” value (human IL-8 [6]) did it give?
A: 0.49

B6: H1009/L395-F1886s (antibody)
heavy: QVQLVESGGGLVQPGGSLRLSCAASGFTFSDYYLSWVRQAPGKGLEWVGLIRNKDNYHTPEYSASVKGRFTISRDDSKNSLYLTMSDLKTEDTAVYYCARENHRYDVELAYWGQGTLVTVSSASTKGPSVFPLAPSSKSTSGGTAALGCLVKDYFPEPVTVSWNSGALTSGVHTFPAVLQSSGLYSLSSVVTVPSSSLGTQTYICNVNHKPSNTKVDKKVEPKSCDKTHTCPPCPAPELRRGPKVFLFPPKPKDTLMISRTPEVTCVVVDVSHEDPEVKFNWYVDGVEVHNAKTKPREEQYNSTYRVVSVLTVLHQDWLNGKEYKCKVSNKALPAPIEKTISKAKGQPREPQVYTLPPSREEMTKNQVSLTCLVKGFYPSDIAVEWESNGQPENNYKTTPPVLDSDGSFFLYSKLTVDKSRWQQGNVFSCSVLHEALHAHTTRKELSLSP
light: DIQMTQSPSSLSASVGDRVTITCRASEIIYSYLAWYQQKPGKAPKLLIYKAKTHADGVPSRFSGSGSGTDFTFTISSLQPEDIATYYCKHHFGFPRTFGQGTKVEIKRTVAAPSVFIFPPSDEQLKSGTASVVCLLNNFYPREAKVQWKVDNALQSGNSQESVTEQDSKDSTYSLSSTLTLSKADYEKHKVYACEVTHQGLSSPVTKSFNRGEC
notes: copies: 2 + 2
Q: Does B6 bind (soluble human FcγRIIIa)?
A: no binding

Q: Does B6 bind (soluble human FcγRIa)?
A: no binding

Q: Does B6 bind [9]?
A: no binding
